One substance from PMC6557629 can be followed below.

The assay concerns the target Recombinant murine serum amyloid A isoform 1.1 (murine). The experiment in a line: cross-linking; SAA-POPC complexes hydrolyzed by sPLA2-III (0.5 mg/ml protein) with glutaraldehyde 0.01-0.08%, 30 min at 24°C, 50 mM sodium phosphate, 150 mM NaCl, pH 7.5; quenched with 100 mM Tris; SDS PAGE.

A word on the stoichiometry N: it is the number of molecules, sites or subunits per partner or assembly. Turning to “Recombinant murine serum amyloid A isoform 1.1 (natural protein)”, the stoichiometry N was 6.
